This is an account of results in US20240247055A1.

The target of the assay is low-density lipoprotein (LDL) receptor-related protein 1 (LRP1) (human) (UniProt Q07954). As to the kind of experiment: cell-based or functional assay.
Sequence of UniProt Q07954 (Q07954 20-4544): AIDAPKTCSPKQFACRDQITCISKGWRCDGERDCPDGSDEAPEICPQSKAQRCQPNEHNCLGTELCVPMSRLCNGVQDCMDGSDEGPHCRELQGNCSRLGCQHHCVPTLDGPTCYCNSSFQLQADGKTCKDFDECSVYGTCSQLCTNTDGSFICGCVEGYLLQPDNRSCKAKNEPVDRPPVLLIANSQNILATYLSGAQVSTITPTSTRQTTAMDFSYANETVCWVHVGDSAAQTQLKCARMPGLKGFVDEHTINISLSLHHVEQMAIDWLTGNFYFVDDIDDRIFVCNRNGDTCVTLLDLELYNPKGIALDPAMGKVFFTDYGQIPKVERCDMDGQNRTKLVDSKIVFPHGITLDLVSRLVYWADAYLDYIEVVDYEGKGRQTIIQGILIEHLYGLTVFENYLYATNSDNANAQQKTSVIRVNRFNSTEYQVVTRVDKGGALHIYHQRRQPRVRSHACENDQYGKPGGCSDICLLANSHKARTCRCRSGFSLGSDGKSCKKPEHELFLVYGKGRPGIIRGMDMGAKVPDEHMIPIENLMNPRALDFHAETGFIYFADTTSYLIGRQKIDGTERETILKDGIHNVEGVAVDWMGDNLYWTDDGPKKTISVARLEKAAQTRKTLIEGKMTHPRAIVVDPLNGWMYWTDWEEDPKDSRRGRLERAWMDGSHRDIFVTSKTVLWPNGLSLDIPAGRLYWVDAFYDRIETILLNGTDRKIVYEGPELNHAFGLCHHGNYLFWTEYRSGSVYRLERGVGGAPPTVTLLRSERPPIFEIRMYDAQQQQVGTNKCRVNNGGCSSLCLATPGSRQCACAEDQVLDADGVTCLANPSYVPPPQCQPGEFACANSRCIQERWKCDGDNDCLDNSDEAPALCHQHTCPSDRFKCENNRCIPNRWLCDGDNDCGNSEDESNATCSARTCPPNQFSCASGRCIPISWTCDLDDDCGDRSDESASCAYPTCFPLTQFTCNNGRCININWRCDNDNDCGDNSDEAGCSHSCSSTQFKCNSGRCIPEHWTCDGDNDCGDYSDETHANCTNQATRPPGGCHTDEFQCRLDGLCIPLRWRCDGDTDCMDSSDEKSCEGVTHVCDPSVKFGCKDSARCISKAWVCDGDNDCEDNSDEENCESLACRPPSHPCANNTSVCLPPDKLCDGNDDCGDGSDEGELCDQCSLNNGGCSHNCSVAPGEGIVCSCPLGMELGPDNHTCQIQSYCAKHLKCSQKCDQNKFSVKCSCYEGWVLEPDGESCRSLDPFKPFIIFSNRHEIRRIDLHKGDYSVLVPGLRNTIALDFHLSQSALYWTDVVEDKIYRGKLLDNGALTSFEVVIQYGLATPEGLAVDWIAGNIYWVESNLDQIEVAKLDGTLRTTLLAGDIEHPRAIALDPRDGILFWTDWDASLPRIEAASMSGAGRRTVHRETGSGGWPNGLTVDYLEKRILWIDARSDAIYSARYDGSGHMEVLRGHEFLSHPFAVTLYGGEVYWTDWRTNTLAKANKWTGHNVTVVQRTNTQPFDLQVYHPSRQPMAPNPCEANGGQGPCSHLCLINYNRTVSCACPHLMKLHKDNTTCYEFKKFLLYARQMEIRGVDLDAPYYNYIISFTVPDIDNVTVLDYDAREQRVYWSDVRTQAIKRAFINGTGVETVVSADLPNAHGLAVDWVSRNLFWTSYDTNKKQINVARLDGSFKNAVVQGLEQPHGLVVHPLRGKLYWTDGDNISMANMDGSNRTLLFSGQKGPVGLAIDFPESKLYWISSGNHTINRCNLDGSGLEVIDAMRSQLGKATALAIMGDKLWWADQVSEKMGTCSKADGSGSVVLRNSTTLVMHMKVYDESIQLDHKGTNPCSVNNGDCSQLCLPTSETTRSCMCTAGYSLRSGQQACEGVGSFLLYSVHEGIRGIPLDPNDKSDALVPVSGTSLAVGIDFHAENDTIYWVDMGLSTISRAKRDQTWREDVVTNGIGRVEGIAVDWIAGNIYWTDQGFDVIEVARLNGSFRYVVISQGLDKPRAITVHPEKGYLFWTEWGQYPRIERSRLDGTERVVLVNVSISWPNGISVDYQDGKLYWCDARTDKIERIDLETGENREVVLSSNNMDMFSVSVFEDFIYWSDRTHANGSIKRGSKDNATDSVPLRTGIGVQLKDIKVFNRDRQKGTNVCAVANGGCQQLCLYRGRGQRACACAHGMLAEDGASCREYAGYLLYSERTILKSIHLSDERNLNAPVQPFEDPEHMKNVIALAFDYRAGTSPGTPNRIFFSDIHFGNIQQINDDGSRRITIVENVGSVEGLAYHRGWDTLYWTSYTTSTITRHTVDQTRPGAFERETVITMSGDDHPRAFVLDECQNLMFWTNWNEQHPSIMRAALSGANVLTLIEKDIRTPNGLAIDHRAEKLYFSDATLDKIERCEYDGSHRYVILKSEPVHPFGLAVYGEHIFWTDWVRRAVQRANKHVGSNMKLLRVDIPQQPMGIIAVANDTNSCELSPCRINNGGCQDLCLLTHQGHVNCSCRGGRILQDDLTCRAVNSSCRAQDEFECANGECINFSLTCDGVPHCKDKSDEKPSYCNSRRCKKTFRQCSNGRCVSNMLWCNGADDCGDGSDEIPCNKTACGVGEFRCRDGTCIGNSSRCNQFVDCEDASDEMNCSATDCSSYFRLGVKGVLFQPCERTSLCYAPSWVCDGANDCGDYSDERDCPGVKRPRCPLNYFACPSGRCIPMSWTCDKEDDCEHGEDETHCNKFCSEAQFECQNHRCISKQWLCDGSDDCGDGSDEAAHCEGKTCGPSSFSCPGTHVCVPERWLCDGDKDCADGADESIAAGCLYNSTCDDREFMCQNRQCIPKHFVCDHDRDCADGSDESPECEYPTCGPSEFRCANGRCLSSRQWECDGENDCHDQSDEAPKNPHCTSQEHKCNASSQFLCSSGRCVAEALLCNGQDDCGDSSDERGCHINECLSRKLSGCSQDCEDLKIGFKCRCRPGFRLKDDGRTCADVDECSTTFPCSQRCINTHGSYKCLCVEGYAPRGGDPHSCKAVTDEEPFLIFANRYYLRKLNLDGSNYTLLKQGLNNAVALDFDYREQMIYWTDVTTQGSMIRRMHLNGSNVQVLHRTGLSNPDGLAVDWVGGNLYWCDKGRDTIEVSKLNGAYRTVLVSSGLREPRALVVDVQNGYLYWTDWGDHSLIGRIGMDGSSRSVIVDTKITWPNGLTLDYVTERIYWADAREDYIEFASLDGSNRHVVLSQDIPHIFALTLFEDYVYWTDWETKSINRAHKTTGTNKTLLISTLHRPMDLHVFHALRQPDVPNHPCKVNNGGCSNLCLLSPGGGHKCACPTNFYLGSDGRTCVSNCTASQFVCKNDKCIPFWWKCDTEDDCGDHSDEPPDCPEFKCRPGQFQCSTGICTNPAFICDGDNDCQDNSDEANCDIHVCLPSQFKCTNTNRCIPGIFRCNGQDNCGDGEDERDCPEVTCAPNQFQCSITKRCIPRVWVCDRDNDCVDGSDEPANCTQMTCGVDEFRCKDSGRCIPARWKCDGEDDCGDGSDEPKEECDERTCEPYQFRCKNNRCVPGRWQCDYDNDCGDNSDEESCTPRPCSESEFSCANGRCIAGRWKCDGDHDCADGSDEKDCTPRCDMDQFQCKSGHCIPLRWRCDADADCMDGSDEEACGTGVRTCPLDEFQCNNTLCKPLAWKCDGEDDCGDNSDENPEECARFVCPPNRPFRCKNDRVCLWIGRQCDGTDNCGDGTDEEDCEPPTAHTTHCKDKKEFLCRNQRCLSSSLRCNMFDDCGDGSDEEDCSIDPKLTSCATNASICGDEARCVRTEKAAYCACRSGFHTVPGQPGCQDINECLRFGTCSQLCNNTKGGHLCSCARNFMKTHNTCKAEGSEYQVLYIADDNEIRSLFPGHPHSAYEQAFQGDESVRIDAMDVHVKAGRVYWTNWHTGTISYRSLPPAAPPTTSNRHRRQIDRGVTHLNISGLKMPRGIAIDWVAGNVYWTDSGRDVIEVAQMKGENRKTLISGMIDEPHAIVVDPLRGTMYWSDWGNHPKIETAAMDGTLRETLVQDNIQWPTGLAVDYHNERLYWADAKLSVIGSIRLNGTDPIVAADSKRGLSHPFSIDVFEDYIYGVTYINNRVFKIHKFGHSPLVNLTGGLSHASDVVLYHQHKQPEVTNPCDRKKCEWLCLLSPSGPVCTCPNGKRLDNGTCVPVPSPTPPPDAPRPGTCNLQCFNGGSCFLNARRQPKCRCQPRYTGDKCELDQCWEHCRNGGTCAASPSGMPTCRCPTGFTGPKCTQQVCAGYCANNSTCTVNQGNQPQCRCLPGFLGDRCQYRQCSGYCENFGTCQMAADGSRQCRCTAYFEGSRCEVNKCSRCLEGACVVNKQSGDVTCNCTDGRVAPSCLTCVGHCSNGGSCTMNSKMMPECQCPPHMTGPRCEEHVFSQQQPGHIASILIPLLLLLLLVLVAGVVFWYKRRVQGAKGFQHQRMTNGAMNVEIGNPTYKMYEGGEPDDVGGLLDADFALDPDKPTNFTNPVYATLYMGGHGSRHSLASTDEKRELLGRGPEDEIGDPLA

“receptor-associated protein (RAP) (from UniProt P30533 35-357) (ligand)” displayed an inhibition of uptake of K18 tau in WT H4 cells (IC50) of 9.6 nM and an inhibition of uptake of full-length tau in WT H4 cells (IC50) of 4.9 nM.
